A short description of this series: protein stability index of a GFP-peptide fusion (GPS, HEK-293T) (PSI 1-6); higher = more stable. To be noted: c terminus: a fixed tail appended.

± gives the standard deviation.
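Note: 24-mer peptide tiles fused after GFP, lentivirally expressed, FACS-sorted into six equal bins by GFP/DsRed ratio, decoded by Illumina sequencing, PSI is the read-weighted mean bin number.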

In the case of KAPVVECSITGDSSRVIAASYDKT [WDR88], the protein stability index reads like this: (treatment: DMSO) 4.56 ± 0.2; (treatment: MLN4924 1 uM, 8 h) 4.78 ± 0.12.
KASGRFGLLQGTSAETSGGLLICL [SEPHS2] yielded a protein stability index (treatment: DMSO) of 2.53 ± 0.83 and a protein stability index (treatment: MLN4924 1 uM, 8 h) of 2.41 ± 0.69.
Sequence KCLSMFPHYICTLKQPHLLLEKYS [PNLIPRP1] registered a protein stability index (treatment: DMSO) of 2.67 ± 0.69 and a protein stability index (treatment: MLN4924 1 uM, 8 h) of 2.51 ± 0.59.
Consider KCQHYKKKRTEQEETIASLQMEVC [CEP70], for which the protein stability index stood at 4.008 ± 0.008 (treatment: DMSO) and 4.02 ± 0.56 (treatment: MLN4924 1 uM, 8 h).
With KDKENKFLCVLMSDWFNFHGHMCI [CLK3], the protein stability index runs as follows: (treatment: DMSO) 3.06 ± 0.31; (treatment: MLN4924 1 uM, 8 h) 3.08 ± 0.53.
Taken in the same sequence, the figures for KDREFHELQGDFSVPDVPKSMAWC [VPS39] were 3.5 ± 0.33 and 3.31 ± 0.15.
KEATVPCTEILTEKKDTITNDSLS [MIA2]: the protein stability index (treatment: MLN4924 1 uM, 8 h) came out at 5.49 ± 0.15.
Regarding KECKDRGFEYDGKINAWDLYYYMT [NLN], the protein stability index runs as follows: (treatment: DMSO) 2.52 ± 0.3; (treatment: MLN4924 1 uM, 8 h) 2.16 ± 0.29.
KEEQRDYVFYLAVGNYRLKEYEKA [FIS1]: the protein stability index came out at 2.39 ± 0.43 (treatment: DMSO) and 2.23 ± 0.36 (treatment: MLN4924 1 uM, 8 h).
On to KEHVPTWLQNTHVYSWPKNKKNIL [TRAF3IP2], for which the protein stability index is, setting by setting: (treatment: DMSO) 2.71 ± 0.081; (treatment: MLN4924 1 uM, 8 h) 3.43 ± 0.24.
With KEISDDEAEEEKGEKEEEDKDDEE [HSP90AB1], the protein stability index (treatment: DMSO) amounted to 5.66 ± 0.34 and the protein stability index (treatment: MLN4924 1 uM, 8 h) was 5.68 ± 0.19.
Take KEKELSIELANIRDEVAFHTAKCE [MTUS2]: the protein stability index is, setting by setting: (treatment: DMSO) 4.46 ± 0.43; (treatment: MLN4924 1 uM, 8 h) 4.37 ± 0.46.
On to KELEKRREESQHEIKDVLVWTNDQ [PPFIA4], for which the protein stability index runs as follows: (treatment: DMSO) 5.27 ± 0.17; (treatment: MLN4924 1 uM, 8 h) 5.25 ± 0.21.
As for KFCMNGAALCALGKDCFLELAPDF [ETS1], the protein stability index worked out at 2.18 ± 0.33 (treatment: DMSO) and 2.01 ± 0.16 (treatment: MLN4924 1 uM, 8 h).
On to KFNGITEKEYKTYKENFLKRFQLT [USP39], for which the protein stability index came out at 3.59 ± 0.12 (treatment: DMSO) and 3.86 ± 0.15 (treatment: MLN4924 1 uM, 8 h).
Taken in the same sequence, the figures for KFTQDNLCRAQRERLASANLRVLV [TEKT4] were 2.15 ± 0.57 and 2.23 ± 0.26.
Consider KFYTWLWGVFYYFVSALGITAGAH [SCD], for which the protein stability index was 2.253 ± 0.003 (treatment: DMSO) and 2.84 ± 1.1 (treatment: MLN4924 1 uM, 8 h).
Regarding KGGQDVKKKVHLSEKIHPFIRKSI [PRIM1], the protein stability index runs as follows: (treatment: DMSO) 3.85 ± 0.53; (treatment: MLN4924 1 uM, 8 h) 3.59 ± 0.48.
For KGYNIWTGGPDACLRCWDQRTIMK [TLE6], in that order: 2.32 ± 0.18 and 2.45 ± 0.14.
Consider KHVLYVEHRHLNPDTELKRYFGAR [TCF25], for which the protein stability index came out at 2.29 ± 0.42 (treatment: DMSO) and 2.48 ± 0.36 (treatment: MLN4924 1 uM, 8 h).
With KKMESEEDSNWEKSPDNEDSGDSK [GOLPH3L], the protein stability index (treatment: DMSO) stood at 5.63 ± 0.23 and the protein stability index (treatment: MLN4924 1 uM, 8 h) came out at 5.59 ± 0.26.
Taken in the same sequence, the figures for KLDIQCDLKTLSDDIKESLESEGK [ATE1] were 5.19 ± 0.23 and 5.01 ± 0.1.
On to KLIQKKLLDKTCDQVMEFSWSALW [ZER1], for which the protein stability index (treatment: DMSO) worked out at 2.41 ± 0.41 and the protein stability index (treatment: MLN4924 1 uM, 8 h) was 2.35 ± 0.2.
Turning to KLLLFLSTELQASQILQNKKHKNS [FAM98B], the protein stability index is, setting by setting: (treatment: DMSO) 2.98 ± 0.75; (treatment: MLN4924 1 uM, 8 h) 2.5 ± 1.1.
For KLRRQVIQVVLNGMESYQEVTVQR [ZER1], the protein stability index is, setting by setting: (treatment: DMSO) 2 ± 0.19; (treatment: MLN4924 1 uM, 8 h) 2.28 ± 0.57.
For KLSARDHQKLEREARICRLLKHSN [CAMK2B], in that order: 3.16 ± 0.47 and 3.52 ± 0.17.
For KMEEDIKEEEEKDHNEAMKPEEPP [PCMTD1], in that order: 5.57 ± 0.15 and 5.58 ± 0.31.
Taken in the same sequence, the figures for KMGSYYINRTFFFDVHPPLGKMLI [POMT2] were 2.95 ± 0.75 and 3 ± 0.46.
Regarding KNATRETTSTLKAWLNEHRKNPYP [IRX6], the protein stability index by setting is: (treatment: DMSO) 3.14 ± 0.23; (treatment: MLN4924 1 uM, 8 h) 3.37 ± 0.33.

The values above are taken from the supplement of paper PMC10567573.
